Data on 6 molecules can be found in US20060063727, “Tr4/tr2 response elements” (published 2006).

Data set [1] deals with T1, TR4 orphan receptor (NR2C2) (Homo sapiens) (UniProt P49116).
T1 sequence: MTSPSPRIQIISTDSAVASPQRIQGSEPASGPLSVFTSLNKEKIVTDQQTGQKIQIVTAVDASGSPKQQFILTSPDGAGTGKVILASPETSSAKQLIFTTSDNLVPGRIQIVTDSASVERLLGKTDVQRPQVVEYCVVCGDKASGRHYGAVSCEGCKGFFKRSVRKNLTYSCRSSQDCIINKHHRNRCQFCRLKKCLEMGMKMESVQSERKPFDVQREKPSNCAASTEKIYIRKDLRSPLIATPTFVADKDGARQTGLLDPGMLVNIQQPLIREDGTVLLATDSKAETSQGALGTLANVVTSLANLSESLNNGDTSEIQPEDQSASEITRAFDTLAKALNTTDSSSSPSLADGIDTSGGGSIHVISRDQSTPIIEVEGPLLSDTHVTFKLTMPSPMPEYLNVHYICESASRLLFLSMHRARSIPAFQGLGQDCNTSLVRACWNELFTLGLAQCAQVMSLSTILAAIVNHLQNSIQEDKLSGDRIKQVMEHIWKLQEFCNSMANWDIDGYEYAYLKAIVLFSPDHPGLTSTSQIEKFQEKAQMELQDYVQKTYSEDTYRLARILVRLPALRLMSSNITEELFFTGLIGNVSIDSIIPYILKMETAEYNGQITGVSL
Briefly: competition. To be noted: competitive EMSA. On the technique in general: In EMSA bound probe runs differently from free probe, usually more slowly.

Data set [2] deals with T2, TR2 orphan receptor (TR2-11, NR2C1) (Homo sapiens, UniProt P13056 SEQ:1-603).
T2 chain: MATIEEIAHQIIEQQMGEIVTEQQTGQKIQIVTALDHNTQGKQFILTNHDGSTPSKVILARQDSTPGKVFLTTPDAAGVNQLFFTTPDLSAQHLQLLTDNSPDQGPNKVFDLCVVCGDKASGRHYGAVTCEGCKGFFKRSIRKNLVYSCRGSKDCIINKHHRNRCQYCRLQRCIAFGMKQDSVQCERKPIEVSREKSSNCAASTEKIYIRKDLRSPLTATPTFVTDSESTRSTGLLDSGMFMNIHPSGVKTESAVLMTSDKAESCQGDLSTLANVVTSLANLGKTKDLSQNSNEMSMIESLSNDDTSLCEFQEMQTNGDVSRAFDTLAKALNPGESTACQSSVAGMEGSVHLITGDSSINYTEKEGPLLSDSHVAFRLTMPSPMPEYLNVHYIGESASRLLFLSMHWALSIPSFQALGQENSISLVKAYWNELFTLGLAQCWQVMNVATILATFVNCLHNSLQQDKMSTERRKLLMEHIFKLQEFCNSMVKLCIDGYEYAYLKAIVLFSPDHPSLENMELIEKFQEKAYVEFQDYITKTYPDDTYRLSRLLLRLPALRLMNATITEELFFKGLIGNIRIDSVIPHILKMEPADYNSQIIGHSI
Briefly: EMSA; competed by excess unlabeled oligo; supershift with anti-TR2 G204. The settings on record: tags: none stated, pSG5-hTR2-11, TNT rabbit reticulocyte lysate; label: 32P. As for the experimental part:
EMSA analysis was performed as described previously (Lee, H. J., and Chang, C. (1995) J. Biol. Chem. 270, 5434-5440). […] For competition reactions, unlabeled HPV-16 DR4RE oligonucleotides were mixed with labeled probe prior to its addition to the reaction. Antibody shift analysis involved the addition of 1 μl of the monoclonal anti-TR2 orphan receptor antibody, G204, to the reaction for 15 min., at room temperature, prior to gel loading.
The site consists of two consensus A(G/T)(G/T)TCA half sites with a spacing of 4 nucleotides (ATGTCAccctAGTTCA). To determine whether TR2 was able to bind the HPV-16 DR4RE, gel shift analysis was performed. […] Also in FIG. 3A, a mock in vitro transcription/translation reaction was used in lane 3, and lane 4 contains ³²P-labeled HPV-16 DR4RE alone. To further confirm the binding specificity of TR2 for the HPV-16 DR4RE, a TR2-specific monoclonal antibody was added, resulting in an upward shift of the labeled complex (FIG. 3B).

Data set [3] concerns the target T2, TR2 orphan receptor (TR2-11, NR2C1). Briefly: EMSA; Scatchard; 25 mM Tris pH 8.0, 50 mM KCl, poly(dI.dC). The settings on record: tags: none stated, pSG5-hTR2-11, TNT rabbit reticulocyte lysate; label: 32P. The method, then: Electrophoretic mobility shift assay analysis was performed as previously described (Jiang, C. K. et al. (1991) J Invest Dermatol 97, 969-973). The oligonucleotides were 5′ end labeled with γ-³²P ATP (specific activity=6000 Ci/mmole) (New England Nuclear) by T4 polynucleotide kinase. The specific activity reached 2-8×10⁸ cpm/μg. Labeled oligonucleotides (0.1 ng) were incubated with in vitro translated proteins, in the presence or absence of unlabeled oligonucleotide competitor or rabbit antiserum against TR2 (Cooney, A. J. et al. (1993) J Biol Chem 268, 4152-4160), for 15 min at room temperature. The binding buffer contained 25 mM Tris-HCl (pH 8.0), 10% glycerol, 50 mM KCl, 2 mM EDTA, 0.05% TritonX-100, 5 mM DTT, 1% β-mercaptoethanol, 5 ng/ml bovine serum albumin, 1.5 units/ml aprotinin, and 1 μg poly(dI.dC) (Pharmacia). […] The radioactive gels were analyzed by PhosphorImager (Molecular Dynamics). […]
To clarify the potential mechanism for the differential regulation of PPARα signal pathway by TR2 and TR4, the Kds (equilibrium dissociation constants) for TR2 and TR4 binding to PPRE were calculated using Scatchard analysis. […] The Kd values calculated here were consistent with the range of Kd values for nuclear receptors and their hormone response elements.

Regarding CRBPII (DR1), in data set [1] (best of natural elements), the IC50 came out at 0.023 ng.
Take DR4 synthetic: the IC50 in data set [1] (range end assigned by order, weakest synthetic DR) was determined as 0.24 ng.
In data set [1] (range end assigned by order DR6>DR5>DR1>DR3>DR2>DR4), DR6 synthetic had an IC50 of 0.08 ng.
In turn, ERE (palindrome) registered an IC50 in data set [1] (weakest natural element, bound poorly, range end assigned by order) of 85 ng.

B1: HPV-16 DR4RE (dsDNA)
DNA 1: ATGTCACCCTAGTTCA
DNA 2: TGAACTAGGGTGACAT
On to B1, for which, in data set [2], the binding result is reported as “binds”.

B2: PPRE (rat acyl-CoA oxidase) (dsDNA)
DNA 1: GTCGACAGGGGACCAGGACAAAGGTCACGTTCGGGAGTCGAC
DNA 2: GTCGACTCCCGAACGTGACCTTTGTCCTGGTCCCCTGTCGAC
Usually Kd stands for a measure of binding affinity in units of concentration. High values mean weaker binding, low ones tighter binding. For B2, the Kd in data set [3] was 1.23 nM.
